Source: article PMC5501724, “Structural Basis for Specific Interaction of TGFβ Signaling Regulators SARA/Endofin with HD-PTP” (Structure(London, England:1993), 2017)
Where “and” joins values, the source holds several entries; their conditions need not be identical. Equal entries are not always repeated.

How the values were obtained:
[1] = molecular target: T1, His6-HD-PTP_(Bro1-CC) (1-714), bacterially expressed (human, UniProt Q9H3S7 1-714); assay: SPR; ProteOn XPR36; His6-tagged proteins immobilised on a HTE chip (5000-8000 RU); synthetic peptides as analytes, five concentrations; 10 mM HEPES pH 7.4, 150 mM NaCl, 0.05% Tween 20; 25°C; equilibrium binding fit; settings: both partners purified
T1 construct: HD-PTP/PTPN23, Bro1 and coiled-coil domains, residues 1-714; also called His-HD-PTP; source: E. coli BL21 (DE3), purified (Nickel-beads, MonoQ, Superdex 200); not shown: His6, N-terminal, kept
T1 sequence (looked up): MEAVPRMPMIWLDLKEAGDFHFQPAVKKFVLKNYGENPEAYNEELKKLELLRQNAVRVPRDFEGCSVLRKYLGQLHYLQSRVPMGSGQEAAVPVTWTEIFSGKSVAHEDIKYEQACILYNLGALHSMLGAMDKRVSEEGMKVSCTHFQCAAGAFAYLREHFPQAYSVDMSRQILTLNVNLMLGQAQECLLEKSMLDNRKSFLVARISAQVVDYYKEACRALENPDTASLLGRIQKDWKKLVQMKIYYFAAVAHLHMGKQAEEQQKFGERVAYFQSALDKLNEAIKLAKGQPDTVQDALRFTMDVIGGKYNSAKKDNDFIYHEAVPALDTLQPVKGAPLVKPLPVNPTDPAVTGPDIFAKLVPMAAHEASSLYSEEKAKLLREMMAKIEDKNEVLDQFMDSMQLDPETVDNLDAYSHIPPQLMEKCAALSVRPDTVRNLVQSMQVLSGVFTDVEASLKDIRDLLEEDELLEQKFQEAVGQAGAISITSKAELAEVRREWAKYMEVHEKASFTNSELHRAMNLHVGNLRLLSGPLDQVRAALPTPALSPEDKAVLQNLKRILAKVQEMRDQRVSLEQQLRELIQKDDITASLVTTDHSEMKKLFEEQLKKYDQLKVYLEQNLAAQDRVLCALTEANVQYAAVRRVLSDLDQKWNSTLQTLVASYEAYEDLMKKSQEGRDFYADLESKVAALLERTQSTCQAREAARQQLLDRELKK

[2] = molecular target: T2, His6-HD-PTP_(Bro1) (1-361) (human, UniProt Q9H3S7 1-361); assay: as above; settings: both partners purified
T2 construct: HD-PTP/PTPN23, Bro1 domain, residues 1-361; Immobilised by its His6 tag on the HTE chip; also called HD-PTP Bro1 domain; source: E. coli BL21 (DE3), purified (Nickel-beads, MonoQ, Superdex 200); not shown: His6, N-terminal, kept
T2 sequence (looked up): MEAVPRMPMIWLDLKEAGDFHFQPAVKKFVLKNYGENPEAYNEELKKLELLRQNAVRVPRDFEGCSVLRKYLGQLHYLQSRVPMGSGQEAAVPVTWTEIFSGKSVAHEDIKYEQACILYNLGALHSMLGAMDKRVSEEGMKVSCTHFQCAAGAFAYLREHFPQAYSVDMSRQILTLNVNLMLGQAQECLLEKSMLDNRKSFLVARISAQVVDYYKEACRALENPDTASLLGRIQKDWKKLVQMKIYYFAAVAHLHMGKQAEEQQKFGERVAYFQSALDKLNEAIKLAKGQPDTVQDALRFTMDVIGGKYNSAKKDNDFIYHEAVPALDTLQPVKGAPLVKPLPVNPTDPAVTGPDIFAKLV

[3] = molecular target: T1, His6-HD-PTP_(Bro1-CC) (1-714), …; assay: co-IP; competition: GST-CHMP4B and His6-HD-PTP Bro1-CC as in the CHMP4B binding experiments, endofin 22-mer peptide (WT or L15P) added at 20 μM; immunoprecipitation with anti-His; settings: both partners purified
[4] = molecular target: T3, His6-HD-PTP_(Bro1-CC) T145K, bacterially expressed (human, UniProt Q9H3S7 1-714, T145K); assay: co-IP; bacterially expressed GST-CHMP4B, full length or truncated (50 μg/ml), and His6-HD-PTP Bro1-CC (5 μg) in 200 μl IP2 buffer with 250 mM NaCl, 2 h at 4°C; immunoprecipitation with anti-His; settings: both partners purified
T3 construct: HD-PTP/PTPN23, residues 1-714 with T145K; source: E. coli, bacterially expressed, purified; not shown: His6, N-terminal, kept
T3 sequence (looked up): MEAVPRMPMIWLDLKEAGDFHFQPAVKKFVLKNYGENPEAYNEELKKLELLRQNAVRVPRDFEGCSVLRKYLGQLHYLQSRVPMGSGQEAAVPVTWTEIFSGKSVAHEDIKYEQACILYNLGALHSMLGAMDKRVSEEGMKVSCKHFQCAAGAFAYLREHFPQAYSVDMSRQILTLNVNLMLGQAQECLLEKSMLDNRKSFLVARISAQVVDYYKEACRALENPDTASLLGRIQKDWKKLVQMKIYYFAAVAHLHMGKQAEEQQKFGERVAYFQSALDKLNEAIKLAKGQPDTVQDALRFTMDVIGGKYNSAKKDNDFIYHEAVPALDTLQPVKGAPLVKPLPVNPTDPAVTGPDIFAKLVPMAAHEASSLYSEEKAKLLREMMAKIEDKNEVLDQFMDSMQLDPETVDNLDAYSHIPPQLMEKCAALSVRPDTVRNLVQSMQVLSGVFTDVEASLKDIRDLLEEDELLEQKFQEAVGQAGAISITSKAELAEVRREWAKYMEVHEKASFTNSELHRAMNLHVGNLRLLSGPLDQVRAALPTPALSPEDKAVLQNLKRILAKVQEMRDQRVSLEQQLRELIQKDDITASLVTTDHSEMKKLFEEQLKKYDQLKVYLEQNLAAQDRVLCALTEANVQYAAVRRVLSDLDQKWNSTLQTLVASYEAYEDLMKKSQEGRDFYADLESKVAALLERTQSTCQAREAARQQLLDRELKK

CHMP4C = molecular target: T4, CHMP4C (Homo sapiens (Human), UniProt Q96CF2); assay: SPR equilibrium, peptide analyte
T4 chain: QRAEEEDDDIKQLAAWAT

CHMP4B = molecular target: T5, CHMP4B (Homo sapiens (Human), UniProt Q9H444); assay: SPR equilibrium, peptide analyte
T5 chain: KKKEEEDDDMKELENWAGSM

CHMP4A = molecular target: T6, CHMP4A (Homo sapiens (Human), UniProt Q9BY43); assay: SPR equilibrium, peptide analyte
T6 chain: PKVDEDEEALKQLAEWVS

B1: endofin 22-mer peptide (first 22 residues of endofin) (peptide, UniProt Q7Z3T8 1-22, looked up)
peptide: MDSYFKAAVSDLDKLLDDFEQN
notes: human endofin, first 22 residues; begins 1-MDSYF-5; also called endofin peptide; endofin_(1-22) (WT); source: synthetic peptide (Generon Ltd, UK)
- Kd [1]: 2.7 µM
- Kd [2]: 3.1 µM

B2: CHMP4C C-terminal peptide (peptide)
chain: QRAEEEDDDIKQLAAWAT
- Kd [2]: 89 µM and 88 µM

B3: GST-CHMP4B (1-224), bacterially expressed (natural protein, human, UniProt Q9H444 1-224, looked up)
chain: MSVFGKLFGAGGGKAGKGGPTPQEAIQRLRDTEEMLSKKQEFLEKKIEQELTAAKKHGTKNKRAALQALKRKKRYEKQLAQIDGTLSTIEFQREALENANTNTEVLKNMGYAAKAMKAAHDNMDIDKVDELMQDIADQQELAEEISTAISKPVGFGEEFDEDELMAELEELEQEELDKNLLEISGPETVPLPNVPSIALPSKPAKKKEEEDDDMKELENWAGSM
notes: CHMP4B, residues 1-224, full length; In pGEX-4T1; also called CHMP4B-FL; full length GST-CHMP4B; source: E. coli C41 (DE3), purified (GSTrap HP)
- binding result [3]: binds
- binding result [4]: binds

B4: SARA 22-mer peptide (N-terminal 22 residues of SARA) (peptide, UniProt O95405 1-22, looked up)
peptide: MENYFQAEAYNLDKVLDEFEQN
notes: human SARA, N-terminal 22 residues; also called SARA peptide; equivalent region of SARA; source: synthetic peptide (Generon Ltd, UK)
- Kd [2]: 11.3 µM

B5: CHMP4A C-terminal peptide (peptide)
chain: PKVDEDEEALKQLAEWVS
- Kd [2]: 132 µM

B6: HDPTP_Bro1 (protein)
chain: MEAVPRMPMIWLDLKEAGDFHFQPAVKKFVLKNYGENPEAYNEELKKLELLRQNAVRVPRDFEGCSVLRKYLGQLHYLQSRVPMGSGQEAAVPVTWTEIFSGKSVAHEDIKYEQACILYNLGALHSMLGAMDKRVSEEGMKVSCTHFQCAAGAFAYLREHFPQAYSVDMSRQILTLNVNLMLGQAQECLLEKSMLDNRKSFLVARISAQVVDYYKEACRALENPDTASLLGRIQKDWKKLVQMKIYYFAAVAHLHMGKQAEEQQKFGERVAYFQSALDKLNEAIKLAKGQPDTVQDALRFTMDVIGGKYNSAKKDNDFIYHEAVPALDTLQPVKGAPLVKPLPVNPTDPAVTGPDIFAKLV
- Kd (CHMP4C): 88 µM
- Kd (CHMP4B): 85 µM
- Kd (CHMP4A): 132 µM
